T1: FAP (Homo sapiens, UniProt Q12884)
T1 sequence (Q12884 1-760): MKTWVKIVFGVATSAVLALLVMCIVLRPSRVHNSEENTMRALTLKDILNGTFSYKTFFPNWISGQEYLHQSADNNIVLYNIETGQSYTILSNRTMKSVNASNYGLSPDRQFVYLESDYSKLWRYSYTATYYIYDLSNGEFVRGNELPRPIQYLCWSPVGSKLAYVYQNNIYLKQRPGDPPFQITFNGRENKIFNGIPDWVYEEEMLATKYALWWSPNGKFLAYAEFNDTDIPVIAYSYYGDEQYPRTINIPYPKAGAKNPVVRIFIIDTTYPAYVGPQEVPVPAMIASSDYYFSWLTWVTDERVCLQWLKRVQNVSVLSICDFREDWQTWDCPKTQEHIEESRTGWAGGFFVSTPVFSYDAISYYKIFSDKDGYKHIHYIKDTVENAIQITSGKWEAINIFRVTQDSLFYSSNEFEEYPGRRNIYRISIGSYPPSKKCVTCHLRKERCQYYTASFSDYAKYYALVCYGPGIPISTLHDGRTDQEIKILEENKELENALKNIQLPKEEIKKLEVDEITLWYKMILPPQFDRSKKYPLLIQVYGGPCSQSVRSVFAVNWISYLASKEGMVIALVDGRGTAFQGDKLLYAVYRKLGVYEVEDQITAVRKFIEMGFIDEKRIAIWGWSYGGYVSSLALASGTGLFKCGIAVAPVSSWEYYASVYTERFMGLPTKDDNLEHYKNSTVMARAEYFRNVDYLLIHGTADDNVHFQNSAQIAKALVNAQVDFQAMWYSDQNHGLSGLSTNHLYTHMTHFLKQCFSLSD

T2: captured FAP (sFAP) (Homo sapiens, UniProt Q12884)
T2 sequence (Q12884 1-760): T1 sequence (Q12884 1-760)

T3: directly coated FAP (FAP) (Homo sapiens, UniProt Q12884)
T3 sequence (Q12884 1-760): T1 sequence (Q12884 1-760)

B1: NI-206.22F7: recombinant human-derived monoclonal anti-FAP antibody, variable regions in FIG. 1 (antibody, V domains shown)
VH: EVQLVETGGGVVQPGRSLRLSCAASGFSFSTHGMYWVRQPPGKGLEWVAVISYDGSDKKYADSVKGRFTISRDNSKNTVYLEMSSVRAEDTALYYCFCRRDAFDLWGQGTMVTVSS
VL: SYVLTQPPSVSVSPGQTARITCSGDALPKKYAYWYQQKSGQAPVLVIYEDTKRPSGIPERFSGSSSGTMATLTISGAQVEDEADYYCYSTDSSGNYWVFGGGTEVTVL

Key:
FAP = target: T1, FAP; details: cited from earlier work
[1] = system: metastatic colorectal cancer; details: unconjugated antibody, early phase II trial; cited from earlier work
[2] = human, in vivo; cited from earlier work
captured FAP (sFAP) = target: T2, captured FAP (sFAP); assay: Capture ELISA, FAP captured via his-tag with coated anti-His antibody; type: binding; details: non-linear regression
Procedure: (§1) ELISA assays were performed with varying antibody concentrations to validate the binding of the exemplary antibodies of the present invention to FAP and to be able to determine their half maximal effective concentration (EC50). For the exemplary recombinant human NI-206.82C2, NI-206.59B4, NI-206.22F7, NI-206.27E8, NI-206.12G4 and NI-206.17A6 antibodies, 96-well microplates (Costar, Corning, USA) were coated with FAP, with a mixture of the 3 peptides or with BSA (Sigma-Aldrich, Buchs, Switzerland) diluted to a concentration of 5 μg/ml in carbonate ELISA coating buffer (15 mM Na2CO3, 35 mM NaHCO3, pH 9.4) for the direct ELISA. For the capture ELISA, the microplates were coated with mouse anti-His monoclonal antibody (Clontech) diluted to a concentration of 3 μg/ml in PBS, the plates were then blocked, FAP or BSA were diluted to a concentration of 2 μg/ml in PBS and added to the plates to be captured. The binding efficiency of the antibodies was then tested. The exemplary NI-206.82C2 antibody specifically and strongly binds to the captured FAP and less efficiently to the directly coated FAP. The exemplary NI-206.59B4 antibody specifically, strongly and similarly binds to the captured FAP and to the directly coated FAP.
(§2) The EC50 values were estimated by a non-linear regression using GraphPad Prism (San Diego, USA) software. […] The binding of NI-206.12G4 towards sFAP was not tested.

[3] = target: T3, directly coated FAP (FAP); assay: Direct ELISA, FAP directly coated; type: binding; details: non-linear regression
Procedure: as §1, §2

Molecule | inhibition of FAP (FAP) | efficacy in inhibiting tumor progression [1] | patients with a change in pharmacokinetics and reduced tumor uptake [2] | EC50, binding to captured FAP (sFAP) (captured FAP (sFAP)) | EC50, binding to directly coated FAP (FAP) [3]
Sibrotuzumab: a humanized version of the F19 antibody that specifically binds to human FAP | not inhibitory | lack of efficacy | 4 of 26 |  | 
B1 |  |  |  | did not show any binding | did not show any binding
